According to paper PMC8844856, “Structural basis of cyclic oligoadenylate binding to the transcription factor Csa3 outlines cross talk between type III and type I CRISPR systems” (The Journal of Biological Chemistry, 2022):

Assays:
Settings in all cases: protein: recombinant; tags: N-terminal His6; chain copies: 2; cyclic; no ends
Csa3Sso E122Q = biological target: T1, Csa3Sso E122Q (Saccharolobus solfataricus P2, UniProt Q97Y88 1-237, E122Q); test: MST; MST buffer not given in the material; Cy5 EMSA: 50 nM probe, 0.5-25 uM protein, 5% acrylamide TBE, 4 C; agarose EMSA: 2% TBE, room temperature; crystals: 20 mM
T1 sequence: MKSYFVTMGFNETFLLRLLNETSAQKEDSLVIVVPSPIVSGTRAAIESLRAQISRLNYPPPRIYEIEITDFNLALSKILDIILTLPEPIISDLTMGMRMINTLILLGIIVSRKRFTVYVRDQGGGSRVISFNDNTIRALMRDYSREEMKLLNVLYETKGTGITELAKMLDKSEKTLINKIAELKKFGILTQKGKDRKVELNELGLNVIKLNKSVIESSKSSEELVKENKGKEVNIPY

Csa3Sso E122A = biological target: T2, Csa3Sso E122A (Saccharolobus solfataricus P2, UniProt Q97Y88 1-237, E122A); test: as above
T2 sequence: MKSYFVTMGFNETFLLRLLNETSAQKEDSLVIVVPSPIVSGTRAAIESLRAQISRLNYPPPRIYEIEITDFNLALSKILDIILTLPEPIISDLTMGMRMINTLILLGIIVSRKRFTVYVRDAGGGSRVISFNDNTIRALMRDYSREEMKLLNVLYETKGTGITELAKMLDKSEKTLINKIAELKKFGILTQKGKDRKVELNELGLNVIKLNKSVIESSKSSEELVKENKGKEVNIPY

Csa3Sso F14A = biological target: T3, Csa3Sso F14A (Saccharolobus solfataricus P2, UniProt Q97Y88 1-237, F14A); test: MST; nonspecific signal at high cA4 only; MST buffer not given in the material; Cy5 EMSA: 50 nM probe, 0.5-25 uM protein, 5% acrylamide TBE, 4 C; agarose EMSA: 2% TBE, room temperature; crystals: 20 mM
T3 sequence: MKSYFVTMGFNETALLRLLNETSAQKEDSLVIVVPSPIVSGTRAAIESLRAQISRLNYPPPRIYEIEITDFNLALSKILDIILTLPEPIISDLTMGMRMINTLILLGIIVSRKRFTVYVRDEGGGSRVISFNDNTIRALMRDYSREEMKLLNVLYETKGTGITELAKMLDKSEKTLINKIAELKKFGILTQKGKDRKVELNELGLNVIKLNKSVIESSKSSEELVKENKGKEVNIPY

Csa3Sso G96A = biological target: T4, Csa3Sso G96A (Saccharolobus solfataricus P2, UniProt Q97Y88 1-237, G96A); test: as above
T4 sequence: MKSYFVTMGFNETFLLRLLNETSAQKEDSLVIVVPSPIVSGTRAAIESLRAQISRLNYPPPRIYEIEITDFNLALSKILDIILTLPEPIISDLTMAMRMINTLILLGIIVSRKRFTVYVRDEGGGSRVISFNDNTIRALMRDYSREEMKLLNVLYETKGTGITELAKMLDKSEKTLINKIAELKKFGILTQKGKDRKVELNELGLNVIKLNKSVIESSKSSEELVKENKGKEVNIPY

Csa3Sso R98A = biological target: T5, Csa3Sso R98A (Saccharolobus solfataricus P2, UniProt Q97Y88 1-237, R98A); test: as above
T5 sequence: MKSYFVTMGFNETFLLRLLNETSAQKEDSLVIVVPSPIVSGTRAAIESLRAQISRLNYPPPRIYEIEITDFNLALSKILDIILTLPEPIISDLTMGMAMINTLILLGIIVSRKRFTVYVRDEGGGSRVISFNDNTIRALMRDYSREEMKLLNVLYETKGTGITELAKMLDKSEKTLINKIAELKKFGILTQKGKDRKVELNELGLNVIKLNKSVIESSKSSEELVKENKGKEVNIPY

Csa3Sso F10A = biological target: T6, Csa3Sso F10A (Saccharolobus solfataricus P2, UniProt Q97Y88 1-237, F10A); test: as above
T6 sequence: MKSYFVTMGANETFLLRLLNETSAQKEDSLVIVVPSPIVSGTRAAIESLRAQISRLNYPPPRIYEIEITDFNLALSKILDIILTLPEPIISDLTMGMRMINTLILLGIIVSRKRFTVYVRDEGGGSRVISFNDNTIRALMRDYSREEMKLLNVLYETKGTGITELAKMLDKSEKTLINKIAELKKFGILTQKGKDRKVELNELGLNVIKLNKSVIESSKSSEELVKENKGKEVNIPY

AAAA (ssRNA, cyclic, 3'-5' linked tetra-adenylate (CHEBI:142457)) [cA4]
Kd (Csa3Sso E122Q): 44.5 nM | Kd (Csa3Sso E122A): 38.3 nM | binding result (Csa3Sso F14A): no binding | binding result (Csa3Sso G96A): no binding | binding result (Csa3Sso R98A): no binding | binding result (Csa3Sso F10A): no binding
